T1: recombinant human Flag-Timeless (human, UniProt Q9UNS1 1-1208)
T1 construct: Timeless, human, component of the replication fork-protection complex; also called Flag-tagged Timeless; source: insect cells infected with a recombinant baculovirus (Sf9), purified
T1 sequence (looked up): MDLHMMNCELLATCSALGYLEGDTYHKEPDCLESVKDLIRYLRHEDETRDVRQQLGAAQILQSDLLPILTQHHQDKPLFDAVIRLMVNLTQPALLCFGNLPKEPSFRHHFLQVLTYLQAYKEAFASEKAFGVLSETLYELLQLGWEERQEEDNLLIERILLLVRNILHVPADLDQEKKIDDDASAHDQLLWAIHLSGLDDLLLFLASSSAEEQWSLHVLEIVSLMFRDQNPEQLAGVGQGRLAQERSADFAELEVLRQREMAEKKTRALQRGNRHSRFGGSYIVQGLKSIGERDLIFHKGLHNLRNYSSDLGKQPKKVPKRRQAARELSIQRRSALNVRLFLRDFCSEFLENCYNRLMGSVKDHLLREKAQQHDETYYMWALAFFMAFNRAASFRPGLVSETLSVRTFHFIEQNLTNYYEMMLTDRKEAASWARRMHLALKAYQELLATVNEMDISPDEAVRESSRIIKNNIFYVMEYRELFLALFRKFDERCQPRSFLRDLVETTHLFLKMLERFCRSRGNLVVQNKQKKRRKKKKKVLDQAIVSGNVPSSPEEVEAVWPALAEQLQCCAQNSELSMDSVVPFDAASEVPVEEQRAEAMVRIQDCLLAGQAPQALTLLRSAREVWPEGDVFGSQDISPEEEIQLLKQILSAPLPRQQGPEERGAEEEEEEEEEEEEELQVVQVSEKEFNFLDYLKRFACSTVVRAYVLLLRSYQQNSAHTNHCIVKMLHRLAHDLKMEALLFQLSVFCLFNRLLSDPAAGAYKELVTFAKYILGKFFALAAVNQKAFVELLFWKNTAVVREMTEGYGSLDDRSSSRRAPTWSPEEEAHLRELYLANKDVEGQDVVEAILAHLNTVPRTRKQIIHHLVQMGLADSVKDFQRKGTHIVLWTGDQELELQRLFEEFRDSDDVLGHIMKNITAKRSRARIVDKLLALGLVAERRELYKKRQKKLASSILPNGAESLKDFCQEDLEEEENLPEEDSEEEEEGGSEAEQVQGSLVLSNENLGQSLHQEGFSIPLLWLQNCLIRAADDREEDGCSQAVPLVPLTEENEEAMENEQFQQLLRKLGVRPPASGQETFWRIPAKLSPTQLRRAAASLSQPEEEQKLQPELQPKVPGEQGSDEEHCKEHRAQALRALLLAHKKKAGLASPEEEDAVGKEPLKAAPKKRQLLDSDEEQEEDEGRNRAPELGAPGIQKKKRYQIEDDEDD

B1: DDX11-3xFlag wild type (enzyme, human, UniProt Q96FC9-2 1-906, looked up)
chain: MANETQKVGAIHFPFPFTPYSIQEDFMAELYRVLEAGKIGIFESPTGTGKSLSLICGALSWLRDFEQKKREEEARLLETGTGPLHDEKDESLCLSSSCEGAAGTPRPAGEPAWVTQFVQKKEERDLVDRLKAEQARRKQREERLQQLQHRVQLKYAAKRLRQEEEERENLLRLSREMLETGPEAERLEQLESGEEELVLAEYESDEEKKVASRVDEDEDDLEEEHITKIYYCSRTHSQLAQFVHEVKKSPFGKDVRLVSLGSRQNLCVNEDVKSLGSVQLINDRCVDMQRSRHEKKKGAEEEKPKRRRQEKQAACPFYNHEQMGLLRDEALAEVKDMEQLLALGKEARACPYYGSRLAIPAAQLVVLPYQMLLHAATRQAAGIRLQDQVVIIDEAHNLIDTITGMHSVEVSGSQLCQAHSQLLQYVERYGKRLKAKNLMYLKQILYLLEKFVAVLGGNIKQNPNTQSLSQTGTELKTINDFLFQSQIDNINLFKVQRYCEKSMISRKLFGFTERYGAVFSSREQPKLAGFQQFLQSLQPRTTEALAAPADESQASTLRPASPLMHIQGFLAALTTANQDGRVILSRQGSLSQSTLKFLLLNPAVHFAQVVKECRAVVIAGGTMQPVSDFRQQLLACAGVEAERVVEFSCGHVIPPDNILPLVICSGISNQPLEFTFQKRELPQMMDEVGRILCNLCGVVPGGVVCFFPSYEYLRQVHAHWEKGGLLGRLAARKKIFQEPKSAHQVEQVLLAYSRCIQACGQERGQVTGALLLSVVGGKMSEGINFSDNLGRCVVMVGMPFPNIRSAELQEKMAYLDQTLPRAPGQAPPGKALVENLCMKAVNQSIGRAIRHQKDFASVVLLDQRYARPPVLAKLPAWIRARVEVKATFGPAIAAVQKFHREKSASS
notes: DDX11 (ChlR1), human, full-length protein of 906 residues (1-906); also called Flag-tagged wild type (WT) DDX11; ChlR1; source: HEK 293T, transiently transfected (pcDNA 3.0); purified, and in whole cell extract; not shown: 3xFlag, C-terminal, kept
B2: DDX11 Peptide # 32 (peptide)
peptide: EQLESGEEELVLAEY
notes: 15-residue peptide of human DDX11 (906-residue protein), in Region T (65-225); its two C-terminal residues are Glu201 and Tyr202 of full-length DDX11; source: synthetic peptide, printed on a PEPperCHIP microarray (PEPperPRINT)

Tests used:
[1] = biological target: T1, recombinant human Flag-Timeless; assay: pull-down; mixtures of purified recombinant proteins (Timeless 0.8 ug or cohesin 1 ug, DDX11 0.5 ug, 200 uL) with anti-DDX11 antibody on Protein A beads; 25 mM Tris-HCl pH 7.5, 150 mM NaCl, 2 mM MgCl2, 1 mM DTT, 5% glycerol, 2 hr at 4 C; washes with 300 mM NaCl, 0.25% Triton X-100; immuno-blot; details: both partners purified
[2] = biological target: T1, recombinant human Flag-Timeless; assay: peptide or protein array; PEPperCHIP microarrays of 15-residue DDX11 peptides on glass slides (tiling array, 13-residue overlap; full substitution scan of peptide # 32); Flag-Timeless at 50 ug/mL in PBS, 0.05% Tween 20, 1% BSA for 16 hr; detected with Cy3-labelled anti-Flag antibody; control array without Flag-Timeless; details: both partners purified

| Binder | binding result [1] | binding result [2] |
| --- | --- | --- |
| B1 | binds |  |
| B2 |  | binds |

From publication PMC6179184, “Interaction of the Warsaw breakage syndrome DNA helicase DDX11 with the replication fork-protection factor Timeless promotes sister chromatid cohesion” (PLoS Genetics, 2018)
